Legend:
nephrectomized rats [1] = experiment: Prophylactic model for chronic renal failure (rat remnant kidney model); type: in vivo; settings: 100 microgram/kg SQ twice per day, 8-9 weeks
Text: (§1) A rat partial (5/6) nephrectomy or rat remnant kidney model can be used as described (Wada, M et al; J Clin Invest 1997 Dec. 15; 100(12):2977-83). Male rats (2-3 months old, weighing about 150-200 g) are subjected to unilateral nephrectomy (either left or right kidney) first. A 2.0 cm skin incision is made in the ventral midline, with its cranial terminus 1.0 cm caudal to the xyphoid process. A 2.0 cm muscle incision is made along the midline. The right kidney is isolated and cleared of surrounding fat and connective tissue to clearly view the renal artery and vein, and ureter as they enter the hilus of the kidney. Care is exercised to minimize disturbance of the adrenal gland. A ligature (3/0 silk) is placed around the renal artery, vein and ureter. These vessels are then cut proximal to the kidney and the kidney is removed, taking care that the adrenal gland is not disturbed. The second step of the surgical procedure involves the removal of the 2/3 of the remaining kidney in 7-10 days after the first step. Plasma creatinine (Cr) and BUN levels rise dramatically due to the loss of renal mass and function. Over the next several weeks, plasma Cr and BUN levels of surviving animals decline somewhat toward normal values but remain elevated. Renal function then appears to remain relatively constant or stable for a period of variable duration. […]

nephrectomized rats [2] = experiment: Intervention model for chronic renal failure (rat remnant kidney model); type: in vivo; settings: nephrectomized rats, 10, 100, 500 microgram/kg SQ twice per day, 4-8 weeks
Text: as §1

Sprague Dawley rats = experiment: Hemodynamics measurements after bolus intravenous injection of recombinant renalase; type: in vivo, rat
Experimental: Sprague Dawley rats (150-250 g) were anesthetized with inactin (100 mg/kg). A catheter (PE-240) was placed in the trachea for airway protection and in the left jugular vein (PE-50) for intravenous infusion of a maintenance fluid solution consisting of normal saline with 6.25% bovine albumin, at a rate of 1.5 ml per 100 g body wt per hour. Core temperature was monitored through a rectal thermometer and body temperature was maintained at 37° C. using a heating pad. Arterial pressure and heart rate were continuously monitored through a PE-50 catheter inserted in the left carotid artery and connected to a pressure transducer (ADInstruments, CO, USA). Hemodynamic recordings were digitized, stored and analyzed using a PowerLab/8SP data acquisition system (ADIntruments). The rats were allowed 1 h to recover after completion of the surgical procedure, and the subsequent 30 minutes served as a control period. The experimental group then received a bolus intravenous injection of 0.5 mg of recombinant renalase in 0.5 ml PBS. The control group was injected with either 0.5 mg BSA or 0.5 mg recombinant glutathione transferase in 0.5 ml of PBS. Blood pressure and heart rate were continuously measured and recorded.
Blood pressure is a function of cardiac output and peripheral vascular resistance, and is regulated by the sympathetic nervous system. Circulating catecholamines control heart rate, myocardial contractility, and the tone of resistance vessels. Since renalase circulates in blood and degrades catecholamines, we examined its in vivo effect on hemodynamic parameters. Within 30 seconds of a single bolus intravenous injection of recombinant renalase, systolic, diastolic and mean arterial pressure decreased by 23.5±1.3, 32.6±2.9 and 28.9±2.7% respectively, (n=4, p<0.001). […] Heart rate remained unchanged initially, and decreased slightly (6.4%) by 60 min, (FIG. 7A, lower panel). In control studies, blood pressure and heart rate were unaffected by either albumin or GST infusion (FIG. 7B). […] Alternatively, renalase could bind to a cognate receptor and modulate myocardial contractility and vascular resistance directly.

[3] = Amine oxidase assay of renalase (Amplex Red Monoamine Oxidase Assay Kit) with amines as substrates; type: biochemical, human; settings: GST-renalase fusion protein, battery of amines as substrates, 2 mM
Experimental: Enzyme assay of renalase was carried out using an Amplex Red Monoamine Oxidase Assay Kit (Molecular Probes, Cat # A-12214) that provides one-step fluorometric method for the continuous measurement of amine oxidase activity using a fluorescence microplate reader. The assay is based on the detection of H2O2 in a horseradish peroxidase-coupled reaction using 10-acetyl-3,7-dihydroxy-phenoxazine (Amplex Red reagent), a highly sensitive and stable probe for H2O2. Experiments were carried out according to manufacturer's instruction with a final substrate concentration of 2 mM.
Therefore, we tested whether it had oxidase activity using a battery of amines as substrates. Renalase fusion protein in E. Coli was generated by cloning renalase cDNA into a Glutathione-S-Transferase (GST)-1-containing pGEX expression vector using the GST Gene Fusion System. […] Its enzymatic activity was unaffected by inhibitors of the FAD-containing amine oxidases, MAO-A and MAO-B (FIG. 4b).
We subsequently tested whether renalase has an oxidase activity using a battery of amines as substrates. […] Thus, it can be concluded that renalase is novel protein that metabolizes dopamine, norepinephrine and epinephrine.

[4] = rat, nadir between 60-90 minutes after injection, n=4, p<0.01
[5] = rat, within 30 seconds of single bolus iv injection, 0.5 mg, n=4, p<0.001

B1: Renalase: novel FAD-dependent monoamine oxidase secreted by the kidney that metabolizes dopamine, norepinephrine and epinephrine; SEQ ID NO: 2 (protein, listed as Homo sapiens)
chain: MAQVLIVGAGMTGSLCAALLRRQTSGPLYLAVWDKADDSGGRMTTACSPHNPQCTADLGAQYITCTPHYAKKHQRFYDELLAYGVLRPLSSPIEGMVMKEGDCNFVAPQGISSIIKHYLKESGAEVYFRHRVTQINLRDDKWEVSKQTGSPEQFDLIVLTMPVPEILQLQGDITTLISECQRQQLEAVSYSSRYALGLFYEAGTKIDVPWAGQYITSNPCIRFVSIDNKKRNIESSEIGPSLVIHTTVPFGVTYLEHSIEDVQELVFQQLENILPGLPQPIATKCQKWRHSQVTNAAANCPGQMTLHHKPFLACGGDGFTQSNFDGCITSALCVLEALKNYI
expected effect on initiation of chronic renal failure (plasma BUN, Cr) (nephrectomized rats [1]): prevent, inhibit or delay the initiation of chronic renal failure
expected treatment benefit to Nx rats (plasma BUN, Cr) (nephrectomized rats [2]): slow down chronic renal failure progression
Arterial elastance (Sprague Dawley rats; Table 1, renalase vs control 0.94 ± 0.09, n=3, NS): 0.8 ± 0.04 mmHg/uL
End diastolic pressure (Sprague Dawley rats; Table 1, renalase vs control 11.3 ± 1.8, n=5, NS): 9.3 ± 1.5 mmHg
Cardiac Output (Sprague Dawley rats; Table 1, renalase vs control 45.8 ± 2.8, n=3, p<0.03): 33.2 ± 1.5 mL/min
Mean Arterial Pressure (Sprague Dawley rats; Table 1, renalase vs control 106.4 ± 4.7, n=8, p<0.0001): 65.3 ± 3.5 mmHg
End systolic pressure (Sprague Dawley rats; Table 1, renalase vs control 127.7 ± 8.1, n=5, p<0.004): 92.7 ± 2.7 mmHg
Heart rate (Sprague Dawley rats; Table 1, renalase vs control 342 ± 6, n=5, p<0.004): 304 ± 9 beats/min
Systemic vascular resistance (Sprague Dawley rats; Table 1, renalase vs control 2323 ± 196, n=3, NS): 1966 ± 183 mmHg/L/min
dP/dt (Sprague Dawley rats; Table 1, renalase vs control 8604 ± 728, n=5, p<0.001): 5235 ± 442 mmHg/sec
decrease in heart rate (Sprague Dawley rats; rat, by 60 min after injection): 6.4%
heart rate, initial response (Sprague Dawley rats; rat, initially after bolus iv injection): unchanged
diastolic arterial pressure lower than baseline at nadir (Sprague Dawley rats; [4]): 14.3±1.2%
mean arterial pressure lower than baseline at nadir (Sprague Dawley rats; [4]): 14.8±1.1%
systolic arterial pressure lower than baseline at nadir (Sprague Dawley rats; [4]): 16.5±1.5%
time to recovery of blood pressure after initial fall (Sprague Dawley rats; rat, single bolus iv injection): ≤ 2 min
decrease in diastolic arterial pressure (Sprague Dawley rats; [5]): 32.6±2.9%
decrease in mean arterial pressure (Sprague Dawley rats; [5]): 28.9±2.7%
decrease in systolic arterial pressure (Sprague Dawley rats; [5]): 23.5±1.3%
rank order potency of catecholamine metabolism [3]: dopamine>epinephrine>norepinephrine

From US7932067B2, “Detection, isolation and uses of renalase (monoamine oxidase C)” (Yale University, priority 2004, dated 2011)
